This passage reports Kd results from publication PMC4344939.

For orientation: Kd means the concentration at which binding is half-saturated.

The target in this experiment is Recombinant human galectin-1 (human) (UniProt P09382). Kind of experiment: SPR. A general note: In SPR one partner is held on a chip, and binding of the other changes the refractive index at the surface.
Chain of UniProt P09382 (P09382 whole entry): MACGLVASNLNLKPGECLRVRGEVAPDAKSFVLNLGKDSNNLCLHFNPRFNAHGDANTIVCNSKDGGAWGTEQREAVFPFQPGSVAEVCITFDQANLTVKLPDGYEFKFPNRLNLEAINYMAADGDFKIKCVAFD

As to “Recombinant hemagglutinin (HA) from influenza A H1N1 (A/Puerto Rico/8/1934) (from UniProt P03452) (natural protein)”, the Kd came to 425 nM.
